This is an account of results in patent US9273093B2, “α4β7 peptide dimer antagonists” (Protagonist Therapeutics, Inc., priority 2012, dated 2016).

This series in a line: Simulated Intestinal Fluid (SIF) Stability Assay. Format: in vitro ADME. To be noted: compared to SEQ ID NO: 39 with Cys or to monomer subunits. The procedure:
Simulated Intestinal Fluid (SIF) Stability Assay
Studies were carried out in simulated intestinal fluid (SIF) to evaluate gastric stability of the dimer molecules of the instant invention. SIF was prepared by adding 6.8 g of monobasic potassium phosphate and 10.0 g of pancreatin to 1.0 L of water. After dissolution, the pH was adjusted to 6.8 using NaOH. DMSO stocks (2 mM) were first prepared for the test compounds. Aliquots of the DMSO solutions were dosed into 6 individual tubes, each containing 0.5 mL of SIF, which had been pre-warmed to 37° C.
The final test compound concentration was 20 μM. The vials were kept in a benchtop Thermomixer® for the duration of the experiment. At each timepoint (0, 5, 10, 20, 40, and 60 minutes), 1.0 mL of acetonitrile containing 1% formic acid was added to one vial to terminate the reaction. Samples were stored at 4° C. until the end of the experiment. […] Aliquots of the supernatant were removed, diluted 1:1 into distilled water containing internal standard, and analyzed by LCMS/MS. Percent remaining at each timepoint was calculated based on the peak area response ratio of test to compound to internal standard. Time 0 was set to 100%, and all later timepoints were calculated relative to time 0. Half-lives were calculated by fitting to a first-order exponential decay equation using GraphPad. […]

Bridges are numbered along the chain shown (N, C = ends). Where no end group is shown, it is not given here. [ ]: non-standard residue; d: D form. NMeR = CN[C@@H](CCCNC(=N)N)C(=O)O; Pen = CC(C)(S)[C@H](N)C(=O)O

As for “SEQ ID NO: 102: homodimer of monomer subunit with Pen in place of Cys and N-Me-Arg, dimerized at C-termini (K[Pen][NMeR]SDTL[Pen]W; disulfide 2-8 (inferred); also: homodimer dimerized at C-termini)”, the “stability in simulated intestinal fluids (SIF) (in words)” value is recorded as “increased stability significantly”.
